The target of one data set is T1, IL-15 polypeptide (Homo sapiens (Human), UniProt P40933 49-162).
T1 construct: also called sIL15; soluble IL15
Description: production of the SADA-Cytokine complex; no direct binding assay described.

Data set [1] deals with the molecule itself. The data set is described as follows: HPLC, traces normalized to peak intensity; main peak is the self-assembled multimer.
Data set [2] concerns the molecule itself. The data set is described as follows: fluorescence correlation spectroscopy; half-life of multimer dissociation, one-phase decay fit. The source says:
(§1) FIG. 4 depicts a summary of fluorescence correlation spectroscopy (FCS) experiment regarding the SADA domains used here. […] Measurements were taken with a Zeiss LSM 880 confocal microscope. Normalized autocorrelations functions G(T) were then plotted to determine the diffusion times for each SADA-BiDE over time. All samples were compared against a monomeric anti-GD2 BiDE.

Data set [3] can be described thus: HPLC after single-step affinity purification; main peak at about 16 min is the self-assembled tetramer (self-association through the p53 SADA domain).
Data set [4] concerns the molecule itself. The data set is described as follows: fluorescence correlation spectroscopy; dissociation of the self-assembled multimer after dilution from 500 nM to 0.5 nM, Cy3-175Lu-Bn-DOTA label, one-phase decay fit.
Description: as §1

Data set [5] is described as follows: HPLC after single-step affinity purification; main peak at about 16 min is the self-assembled tetramer (self-association through the p73 SADA domain).
Data set [6] in a line: HPLC after single-step affinity purification; main peak at about 16 min is the self-assembled tetramer (self-association through the p63 SADA domain).

Here are results for 6 molecules from patent US20250295794A1 (Memorial Sloan Kettering, published 2025).

T1 sequence (P40933 49-162 limits assumed): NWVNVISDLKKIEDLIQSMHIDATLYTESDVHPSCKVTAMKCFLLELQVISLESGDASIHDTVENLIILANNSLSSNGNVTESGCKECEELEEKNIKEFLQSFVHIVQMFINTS

B1: P53-Cytokine polypeptide (IL15Rα, huP53-tet, IgG3 spacer) (other)
chain: ITCPPPMSVEHADIWVKSYSLYSRERYICNSGFKRKAGTSSLTECVLNKATNVAHWTTPSLKCIRTPLGDTTHTSGKPLDGEYFTLQIRGRERFEMFRELNEALELKDAQAGKEPGGSGGAPHHHHHH
notes: The full complex is described as 8 pairs of IL15Rα/IL15 (about 200 kDa); also called SADA-Cytokine
For the molecule B1, the binding result (with IL-15 polypeptide; in data set [1]) was “binds” in each case.

B2: P53-BiDE (hu3F8-scFv, huC825-scFv, huP53-tet, GS linker, IgG3 spacer) (bispecific antibody)
chain: EIVMTQTPATLSVSAGERVTITCKASQSVSNDVTWYQQKPGQAPRLLIYSASNRYSGVPARFSGSGYGTEFTFTISSVQSEDFAVYFCQQDYSSFGCGTKLEIKRGGGGSGGGGSGGGGSGGGGSGGGGSGGGGSQVQLVESGPGVVQPGRSLRISCAVSGFSVTNYGVHWVRQPPGKCLEWLGVIWAGGITNYNSAFMSRLTISKDNSKNTVYLQMNSLRAEDTAMYYCASRGGHYGYALDYWGQGTLVTVSSGGGGSGGGGSGGGGSGGGGSHVQLVESGGGLVQPGGSLRLSCAASGFSLTDYGVHWVRQAPGKGLEWLGVIWSGGGTAYNTALISRFTISRDNSKNTLYLQMNSLRAEDTAVYYCARRGSYPYNYFDAWGCGTLVTVSSGGGGSGGGGSGGGGSQAVVTQEPSLTVSPGGTVTLTCGSSTGAVTASNYANWVQQKPGQCPRGLIGGHNNRPPGVPARFSGSLLGGKAALTLLGAQPEDEAEYYCALWYSDHWVIGGGTKLTVLGTPLGDTTHTSGKPLDGEYFTLQIRGRERFEMFRELNEALELKDAQAGKEPGGSGGAPHHHHHH
notes: Self-assembles into a homo-tetramer of about 200 kDa; Its targets GD2 (ganglioside) and Bn-DOTA (hapten) are not proteins; only the self-association is recorded; also called p53 SADA-BiDE
Broadly, the half-life is the time needed for the level to fall by half in the phase considered. A lower half-life goes with rapid decline. As usually defined, the koff is the first-order rate constant of dissociation. A low value points to slow dissociation. For the molecule B2, the half-life in data set [2] came out at 1.73 h. In addition, in data set [3], the “% tetramer (HPLC purity, main peak)” value came out at 94.4%. This molecule had a koff in data set [4] of 0.000112 s⁻¹.

B3: P63-Cytokine polypeptide (IL15Rα, huP63-tet, IgG3 spacer) (other)
chain: ITCPPPMSVEHADIWVKSYSLYSRERYICNSGFKRKAGTSSLTECVLNKATNVAHWTTPSLKCIRTPLGDTTHTSGRSPDDELLYLPVRGRETYEMLLKIKESLELMQYLPQHTIETYRQQQQQQHQHLLQKQGGSGGAPHHHHHH
notes: The full complex is described as 8 pairs of IL15Rα/IL15; also called SADA-Cytokine
For B3, the binding result (with IL-15 polypeptide; in data set [1]) was “binds” each time.

B4: P73-Cytokine polypeptide (IL15Rα, huP73-tet, IgG3 spacer) (other)
chain: ITCPPPMSVEHADIWVKSYSLYSRERYICNSGFKRKAGTSSLTECVLNKATNVAHWTTPSLKCIRTPLGDTTHTSGRHGDEDTYYLQVRGRENFEILMKLKESLELMELVPQPLVDSYRQQQQLLQRPGGSGGAPHHHHHH
notes: as for B3
For B4, the binding result (with IL-15 polypeptide; in data set [1]) was “binds” each time.

B5: P73-BiDE (hu3F8-scFv, huC825-scFv, huP73-tet, GS linker, IgG3 spacer) (bispecific antibody)
chain: EIVMTQTPATLSVSAGERVTITCKASQSVSNDVTWYQQKPGQAPRLLIYSASNRYSGVPARFSGSGYGTEFTFTISSVQSEDFAVYFCQQDYSSFGCGTKLEIKRGGGGSGGGGSGGGGSGGGGSGGGGSGGGGSQVQLVESGPGVVQPGRSLRISCAVSGFSVTNYGVHWVRQPPGKCLEWLGVIWAGGITNYNSAFMSRLTISKDNSKNTVYLQMNSLRAEDTAMYYCASRGGHYGYALDYWGQGTLVTVSSGGGGSGGGGSGGGGSGGGGSHVQLVESGGGLVQPGGSLRLSCAASGFSLTDYGVHWVRQAPGKGLEWLGVIWSGGGTAYNTALISRFTISRDNSKNTLYLQMNSLRAEDTAVYYCARRGSYPYNYFDAWGCGTLVTVSSGGGGSGGGGSGGGGSQAVVTQEPSLTVSPGGTVTLTCGSSTGAVTASNYANWVQQKPGQCPRGLIGGHNNRPPGVPARFSGSLLGGKAALTLLGAQPEDEAEYYCALWYSDHWVIGGGTKLTVLGTPLGDTTHTSGRHGDEDTYYLQVRGRENFEILMKLKESLELMELVPQPLVDSYRQQQQLLQRPGGSGGAPHHHHHH
notes: Self-assembles into a homo-tetramer of about 200 kDa; also called p73 SADA-BiDE
The molecule B5 registered a half-life in data set [2] of 2.03 h. In data set [5], the “% tetramer (HPLC purity, main peak)” value came to 90.2%. Further, in data set [4], the koff was 9.5e-05 s⁻¹.

B6: P63-BiDE (hu3F8-scFv, huC825-scFv, huP63-tet, GS linker, IgG3 spacer) (bispecific antibody)
chain: EIVMTQTPATLSVSAGERVTITCKASQSVSNDVTWYQQKPGQAPRLLIYSASNRYSGVPARFSGSGYGTEFTFTISSVQSEDFAVYFCQQDYSSFGCGTKLEIKRGGGGSGGGGSGGGGSGGGGSGGGGSGGGGSQVQLVESGPGVVQPGRSLRISCAVSGFSVTNYGVHWVRQPPGKCLEWLGVIWAGGITNYNSAFMSRLTISKDNSKNTVYLQMNSLRAEDTAMYYCASRGGHYGYALDYWGQGTLVTVSSGGGGSGGGGSGGGGSGGGGSHVQLVESGGGLVQPGGSLRLSCAASGFSLTDYGVHWVRQAPGKGLEWLGVIWSGGGTAYNTALISRFTISRDNSKNTLYLQMNSLRAEDTAVYYCARRGSYPYNYFDAWGCGTLVTVSSGGGGSGGGGSGGGGSQAVVTQEPSLTVSPGGTVTLTCGSSTGAVTASNYANWVQQKPGQCPRGLIGGHNNRPPGVPARFSGSLLGGKAALTLLGAQPEDEAEYYCALWYSDHWVIGGGTKLTVLGTPLGDTTHTSGRSPDDELLYLPVRGRETYEMLLKIKESLELMQYLPQHTIETYRQQQQQQHQHLLQKQGGSGGAPHHHHHH
notes: Self-assembles into a homo-tetramer of about 200 kDa; also called p63 SADA-BiDE
In the case of B6, in data set [2], the half-life amounted to 3.08 h. The “% tetramer (HPLC purity, main peak)” value in data set [6] was 89.2%. In data set [4], this molecule returned a koff of 6.3e-05 s⁻¹.
